± gives the standard deviation of the averaged measurements.
The sequences below were run on Saccharomyces cerevisiae (assay: protein stability index of tFT-peptide fusion (C-terminal peptide) (PSI (0-1 scale)); higher = more stable (slower turnover)). Conditions: genetic background: wild type; temperature: 30 C.
Experimental: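 Multiplexed protein stability (MPS) profiling in S. cerevisiae. Random 12-aa peptides (tFT-X12 library) are fused to the C-terminus of a sfGFP-mCherry tandem fluorescent timer, after mCherry and a GGGS linker. Cells are FACS-sorted into 8 mCherry/sfGFP bins and deep-sequenced. The protein stability index (PSI) is the read-weighted bin average, scaled from 0 (unstable) to 1 (stable). Only peptides with >10 reads are reported; cells were grown at 30 °C in SC-His with glucose.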
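Also: PSI is a weighted mean of sequencing reads over stability bins, variants kept only with over 10 reads, mCherry proximal and sfGFP distal, peptide attached via GGGS linker.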

For CITKERVMVKFV, which protein stability index is on record?
The protein stability index was 0.538 ± 0.012.

For CITRIGSYGEET, which protein stability index is on record?
The protein stability index was 0.679 ± 0.057.

For CLCHAPLPLAAP, which protein stability index is on record?
Its protein stability index is 0.642 ± 0.013.

Which protein stability index does the source give for CLFLRLSPSCSR here?
Its protein stability index is 0.686 ± 0.04.

CLGCAFPPHSLY was tested. Which protein stability index did it give?
Its protein stability index is 0.646 ± 0.046.

CLGGPAAWPLFS was tested. Which protein stability index did it give?
Its protein stability index is 0.6778 ± 0.0025.

With CLLAPSSLASPI as the sequence, how does the protein stability index read?
The protein stability index was 0.66 ± 0.043.

CLLFSRQLLESP was tested. Which protein stability index did it give?
The protein stability index was 0.678 ± 0.077.

CLLPFCFLSHIF was tested. Which protein stability index did it give?
The protein stability index was 0.585 ± 0.04.

How did the protein stability index turn out when CLLRPTPRPATP was run?
Its protein stability index is 0.779 ± 0.036.

CLLYPPYHFYIH was tested. Which protein stability index did it give?
The protein stability index was 0.567 ± 0.0066.

How did the protein stability index turn out when CLMGTIETRLRC was run?
Its protein stability index is 0.637 ± 0.049.

CLPQCLNPDFAE was tested. Which protein stability index did it give?
The protein stability index was 0.645 ± 0.0066.

How did the protein stability index turn out when CLRGGGAGDGAS was run?
Its protein stability index is 0.673 ± 0.048.

With CLRGTYPRLPLT as the sequence, how does the protein stability index read?
Its protein stability index is 0.6838 ± 0.0035.

CLRRRSLSPLFI was tested. Which protein stability index did it give?
The protein stability index was 0.7252 ± 0.0057.

CLSFCFGISVFD was tested. Which protein stability index did it give?
The protein stability index was 0.616 ± 0.017.

CLSSVSLSNVSV was tested. Which protein stability index did it give?
Its protein stability index is 0.669 ± 0.068.

For CLVKSNVCVAPG, which protein stability index is on record?
The protein stability index was 0.643 ± 0.12.

How did the protein stability index turn out when CMRVHPGHPFPY was run?
The protein stability index was 0.633 ± 0.06.

With CNEKVNRNGYKR as the sequence, how does the protein stability index read?
The protein stability index was 0.69 ± 0.064.

CNIASTLEKTCP was tested. Which protein stability index did it give?
The protein stability index was 0.7043 ± 0.0062.

For CNNRNKRMRKYI, which protein stability index is on record?
Its protein stability index is 0.669 ± 0.031.

For CPFLFSLFPHSF, which protein stability index is on record?
Its protein stability index is 0.6646 ± 0.0033.

Which protein stability index does the source give for CPFTDPRRQQSV here?
Its protein stability index is 0.646 ± 0.028.

For CPLGHLCVIRFG, which protein stability index is on record?
The protein stability index was 0.59 ± 0.012.

With CPPSPSPPLPPL as the sequence, how does the protein stability index read?
Its protein stability index is 0.712 ± 0.0085.

Which protein stability index does the source give for CPRLWGGRLLMR here?
The protein stability index was 0.5867 ± 0.003.

For CPRWHDCLACIE, which protein stability index is on record?
The protein stability index was 0.665 ± 0.011.

With CPSLSALNHPLV as the sequence, how does the protein stability index read?
Its protein stability index is 0.701 ± 0.021.

How did the protein stability index turn out when CPYIFLLSLGNT was run?
Its protein stability index is 0.651 ± 0.017.

CQLCTDPLIDLL was tested. Which protein stability index did it give?
The protein stability index was 0.667 ± 0.03.

CQNLVCRCCLWI was tested. Which protein stability index did it give?
Its protein stability index is 0.6423 ± 0.0059.

For CQRHGTKIHRRR, which protein stability index is on record?
Its protein stability index is 0.736 ± 0.053.

For CQTRTKAKKTQV, which protein stability index is on record?
Its protein stability index is 0.727 ± 0.0083.

For CQVDGTMLCSEC, which protein stability index is on record?
The protein stability index was 0.652 ± 0.02.

Which protein stability index does the source give for CQVVALYCFSLL here?
Its protein stability index is 0.62 ± 0.068.

With CRAAAGMVVWHG as the sequence, how does the protein stability index read?
Its protein stability index is 0.6835 ± 0.0056.

Which protein stability index does the source give for CRATYVGTGGRG here?
The protein stability index was 0.656 ± 0.016.

With CRFRFGFNFSSF as the sequence, how does the protein stability index read?
Its protein stability index is 0.581 ± 0.075.

Which protein stability index does the source give for CRGVGGRTVING here?
The protein stability index was 0.692 ± 0.032.

For CRNSTKFAVLRE, which protein stability index is on record?
Its protein stability index is 0.654 ± 0.012.

How did the protein stability index turn out when CRPVHVNLPFYF was run?
Its protein stability index is 0.5884 ± 0.00092.

For CRRCRIHSGIYD, which protein stability index is on record?
Its protein stability index is 0.672 ± 0.034.

For CRRLLIHTALRV, which protein stability index is on record?
Its protein stability index is 0.582 ± 0.015.

With CRRPPWRFSFPF as the sequence, how does the protein stability index read?
The protein stability index was 0.767 ± 0.021.

Which protein stability index does the source give for CRSGSVGGIRGR here?
The protein stability index was 0.679 ± 0.011.

CSFHPSSVSLYS was tested. Which protein stability index did it give?
The protein stability index was 0.555 ± 0.027.

With CSFSRRLCHRPT as the sequence, how does the protein stability index read?
The protein stability index was 0.701 ± 0.013.

CSHSLFASCSSL was tested. Which protein stability index did it give?
The protein stability index was 0.695 ± 0.021.

How did the protein stability index turn out when CSIVGLGACVSW was run?
Its protein stability index is 0.669 ± 0.0083.

For CSLCILSWTFPS, which protein stability index is on record?
Its protein stability index is 0.6464 ± 0.0026.

For CSLSRFLGCWGF, which protein stability index is on record?
The protein stability index was 0.668 ± 0.062.

For CSMSGPLIIIAR, which protein stability index is on record?
Its protein stability index is 0.58339 ± 0.00021.

With CSPSDCGWQLVL as the sequence, how does the protein stability index read?
The protein stability index was 0.604 ± 0.09.

How did the protein stability index turn out when CSRFPGSVRVVS was run?
The protein stability index was 0.615 ± 0.012.

CSRSPASAPRPH was tested. Which protein stability index did it give?
The protein stability index was 0.688 ± 0.018.

How did the protein stability index turn out when CSSLPPFPALPR was run?
The protein stability index was 0.701 ± 0.026.

For CSSTTFADRRFM, which protein stability index is on record?
The protein stability index was 0.753 ± 0.062.

With CTAPIASWKRVL as the sequence, how does the protein stability index read?
Its protein stability index is 0.694 ± 0.029.

For CTCLHSSGVRHT, which protein stability index is on record?
Its protein stability index is 0.692 ± 0.047.

How did the protein stability index turn out when CTSSVRARRRFR was run?
Its protein stability index is 0.698 ± 0.043.

How did the protein stability index turn out when CVFSCLLATVFL was run?
Its protein stability index is 0.533 ± 0.026.

With CVGARLYMVRDR as the sequence, how does the protein stability index read?
The protein stability index was 0.724 ± 0.046.

With CVGFCLGKCTMS as the sequence, how does the protein stability index read?
Its protein stability index is 0.732 ± 0.014.

How did the protein stability index turn out when CVIESIEQCLSR was run?
Its protein stability index is 0.716 ± 0.045.

CVLAPPHRRAPS was tested. Which protein stability index did it give?
The protein stability index was 0.699 ± 0.031.

For CVLLGSTIPAIV, which protein stability index is on record?
The protein stability index was 0.645 ± 0.043.

Which protein stability index does the source give for CWVRGLEYCSIW here?
Its protein stability index is 0.676 ± 0.028.

CYGAYLVSQWGS was tested. Which protein stability index did it give?
The protein stability index was 0.697 ± 0.028.

How did the protein stability index turn out when DACWWVDDGGVV was run?
Its protein stability index is 0.719 ± 0.051.

For DAGLCGCCGVIG, which protein stability index is on record?
Its protein stability index is 0.666 ± 0.057.

How did the protein stability index turn out when DALGRSTKGGHW was run?
The protein stability index was 0.689 ± 0.024.

With DARGTVVEIRPG as the sequence, how does the protein stability index read?
The protein stability index was 0.72 ± 0.19.

DAVRRSSLSLAT was tested. Which protein stability index did it give?
The protein stability index was 0.711 ± 0.16.

With DCFSFVASSSFC as the sequence, how does the protein stability index read?
The protein stability index was 0.7696 ± 0.004.

How did the protein stability index turn out when DCIAFVPRDRRS was run?
The protein stability index was 0.614 ± 0.012.

Which protein stability index does the source give for DCREALLAKVYL here?
The protein stability index was 0.627 ± 0.07.

Which protein stability index does the source give for DCRLPSLPPCVA here?
The protein stability index was 0.648 ± 0.059.

For DCYSKLQSRKCG, which protein stability index is on record?
Its protein stability index is 0.682 ± 0.018.

For DDTSIVRRMQSP, which protein stability index is on record?
The protein stability index was 0.674 ± 0.014.

DEVRDTSGGTWA was tested. Which protein stability index did it give?
Its protein stability index is 0.642 ± 0.02.

Which protein stability index does the source give for DFMGLRCSARKA here?
The protein stability index was 0.693 ± 0.016.

For DFPLISAHNTVC, which protein stability index is on record?
Its protein stability index is 0.655 ± 0.033.

With DFVESKVCSCSV as the sequence, how does the protein stability index read?
The protein stability index was 0.666 ± 0.01.

Which protein stability index does the source give for DFVSQFSFQFGC here?
Its protein stability index is 0.713 ± 0.066.

DGGKRKQDSQKK was tested. Which protein stability index did it give?
Its protein stability index is 0.683 ± 0.034.

Which protein stability index does the source give for DGKGLRATWQWS here?
Its protein stability index is 0.737 ± 0.037.

For DGLGSSGCCLCW, which protein stability index is on record?
The protein stability index was 0.693 ± 0.038.

Which protein stability index does the source give for DGPGFNVCLRCK here?
The protein stability index was 0.708 ± 0.017.

For DGPRPPRPSPVP, which protein stability index is on record?
Its protein stability index is 0.699 ± 0.04.

With DGPWGGVRAGEV as the sequence, how does the protein stability index read?
The protein stability index was 0.717 ± 0.063.

DGRLNVCCYPSC was tested. Which protein stability index did it give?
Its protein stability index is 0.689 ± 0.15.

For DGSSESRSGTGK, which protein stability index is on record?
Its protein stability index is 0.69 ± 0.057.

DGTLTAKVIETF was tested. Which protein stability index did it give?
The protein stability index was 0.66 ± 0.058.

With DGTSKDSKWYMN as the sequence, how does the protein stability index read?
Its protein stability index is 0.747 ± 0.088.

DGVGRLADGRGI was tested. Which protein stability index did it give?
The protein stability index was 0.688 ± 0.013.

Which protein stability index does the source give for DGVGVPGCGRVG here?
The protein stability index was 0.734 ± 0.075.

Reference: the supplement of paper PMC10724198
